Here are results for five molecules from patent US20190169301A1 (Boehringer Ingelheim, published 2019).

Broadly, the Kd is the free concentration of one partner at which half of the binding sites on the other are occupied at equilibrium, for simple one-to-one binding. One may read the EC50 as the concentration at which the effect is half-maximal. The EC50 (read off the curve) is the midpoint of the concentration-response curve.

The target of assay [1] is T1, human CD40 on cells (CD40-transfected HEK293 cells, Ramos cells, human B cells, human platelets) (human, UniProt P25942 21-277).
T1 construct: whole, on cells; also called cellular CD40
T1 sequence (P25942 21-277): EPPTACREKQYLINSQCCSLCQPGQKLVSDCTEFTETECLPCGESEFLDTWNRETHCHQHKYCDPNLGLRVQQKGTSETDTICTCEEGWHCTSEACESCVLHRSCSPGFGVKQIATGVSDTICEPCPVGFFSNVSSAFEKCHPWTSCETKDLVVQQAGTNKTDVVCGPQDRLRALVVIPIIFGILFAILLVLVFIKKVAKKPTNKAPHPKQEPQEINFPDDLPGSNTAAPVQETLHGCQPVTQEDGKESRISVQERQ
Kind of assay: flow cytometry (mean fluorescence intensity), FITC-labeled antibody on human platelets. (In general: In flow cytometry, cells or beads pass a laser one at a time.)

Assay [2] concerns the target T1, human CD40 on cells (CD40-transfected …). The experiment in a line: cell-based or functional assay.
Assay [3] deals with T2, human CD40-Fc protein (human, UniProt P25942 21-193).
T2 construct: also called recombinant CD40 protein; not shown: Fc part
T2 sequence (P25942 21-193 limits assumed): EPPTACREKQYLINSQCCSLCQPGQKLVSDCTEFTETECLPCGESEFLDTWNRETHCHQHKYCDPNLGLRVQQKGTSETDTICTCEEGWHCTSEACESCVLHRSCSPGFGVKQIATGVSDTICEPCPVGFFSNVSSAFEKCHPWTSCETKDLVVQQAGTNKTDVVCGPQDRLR
The experiment in a line: ForteBio Octet, human CD40-Fc, +/- human serum. As to the method:
Due to antibody and CD40-Fc bivalency avidity effects prevent Kds below 100 pM from being determined accurately. In addition, the binding to CD40-Fc was analyzed in the absence and presence of 50% human serum and no significant effect of serum on binding was observed (data not shown)
For orientation: BLI is a label-free optical method that tracks binding on a fibre tip over time.

The target of assay [4] is T1, human CD40 on cells (CD40-transfected …). The experiment in a line: flow cytometry, human CD40-transfected HEK293 cells. How it is done:
(§1) The specific binding of humanized antibodies to cellular CD40 was analyzed by flow cytometry using human CD40-transfected HEK293 cells. Concentration-dependent binding of Antibody A, Antibody B, and Antibody C was observed. […] No binding was detected on CD40 negative cells such as non-transfected HEK293 cells or the T cell line HSB-2 thus confirming selective binding to CD40 (data not shown).

The target is the same in assay [5]. The experiment in a line: flow cytometry (MFI) on CD40-transfected HEK cells. As to the method:
as §1

For assay [6] the target is unchanged. The experiment in a line: cell binding, flow cytometry (cell type not given).
For assay [7], the target named is T3, cynomolgus monkey CD40 on cells (B cells, platelets) (cynomolgus monkey, UniProt G7PG38 21-278).
T3 construct: whole, on cells
The experiment in a line: EC50 ratio human/cyno; ratio > 1 means increased binding to Cyno compared to Human.

The target of assay [8] is T1, human CD40 on cells (CD40-transfected …). Kind of assay: cell-based or functional assay. The source holds these as a separate data set.
Assay [9] has the same target. Kind of assay: flow cytometry (MFI) on human CD40-transfected HEK-293 cells. How it is done:
as §1

For assay [10] the target is unchanged. Kind of assay: flow cytometry, directly labeled antibody, B cells in human whole blood (n = 6); range in brackets.
Assay [11] has the same target. The experiment in a line: flow cytometry, directly labeled antibody, platelets in human whole blood (n = 5); range in brackets.
For assay [12], the target named is T3, cynomolgus monkey CD40 on cells (B …). Kind of assay: flow cytometry, directly labeled antibody, B cells in cynomolgus whole blood (n = 5); range in brackets.
Assay [13] has the same target. Kind of assay: flow cytometry, directly labeled antibody, platelets in cynomolgus whole blood (n = 5); range in brackets.

Where only a bound is given, the exact number is not on record here.

B1: 2H11 (murine anti-human CD40 antibody) (antibody, V domains shown)
VH: EVQLQQSGAELVRPGASVKLSCTASGFNIKDYYVHWVKQRPEKGLEWIGRIDPEDGDSKYAPKFQGKATMTADTSSNTAYLHLSSLTSEDTAVYYCTTSYYVGTYGYWGQGTTLTVSS
VL: QIVLTQSPAIMSASPGEKVTITCSASSSVSYMLWFQQKPGTSPKLWIYSTSNLASGVPARFGGSGSGTSYSLTISRMEAEDAATYYCQQRTFYPYTFGGGTKLEIK
notes: Mouse monoclonal antibody
With B1, the binding result in [1] is “binds”.

B2: Antibody C (IgG1KO) (antibody, V domains shown)
VH: QVQLVQSGAEVKKPGASVKVSCTASGFNIKDYYVHWVKQAPGQGLEWMGRIDPEDGDSKYAPKFQGKATMTADTSTSTVYMELSSLRSEDTAVYYCTTSYYVGTYGYWGQGTLVTVSS
VL: DIQMTQSPSSLSASVGDRVTITCSASSSVSYMLWFQQKPGKAPKLLIYSTSNLASGVPSRFSGSGSGTDFTLTISSLQPEDFATYYCQQRTFYPYTFGGGTKVEIKR
notes: also called 2H11-159-94
As for B2, the “B cell proliferation:Agonism (SI*)” value in [2] was < 2 SI (Stimulation Index). In addition, the Kd in assay [3] was below 0.1 nM. The values for the concentration for a half-maximal effect (EC50) in assay [4] and in assay [6] were around 1 nM and 1.7 nM, respectively. Also, the concentration giving a half-maximal response (EC50 (read off the curve)) in assay [5] is around 0.8 nM. Further, in [7], the “Species cross-react.:Hu/Cyno Binding (EC50 ratios)” value was determined as 1 ratio.

B3: 4D11 (Kirin/Astellas) anti-CD40 antibody (antibody, V domains shown)
VH: QLQLQESGPGLLKPSETLSLTCTVSGGSISSPGYYGGWIRQPPGKGLEWIGSIYKSGSTYHNPSLKSRVTISVDTSKNQFSLKLSSVTAADTAVYYCTRPVVRYFGWFDPWGQGTLVTVSS
VL: AIQLTQSPSSLSASVGDRVTITCRASQGISSALAWYQQKPGKAPKLLIYDASNLESGVPSRFSGSGSGTDFTLTISSLQPEDFATYYCQQFNSYPTFGQGTKVEIK
Consider B3, for which the “B cell proliferation assay, average IC50” value in [8] is around 0.02 nM. In assay [2], the “B cell proliferation:Agonism (SI*)” value is < 2 SI (Stimulation Index). In assay [3], this molecule returned a dissociation constant Kd below 0.1 nM. Moreover, the values for the half-maximal effective concentration (EC50) in [4] and in assay [6] were around 1 nM and 0.9 nM, respectively.

B4: Antibody A (IgG1KO) (antibody, V domains shown)
VH: EVQLVESGGGLVKPGGSLRLSCAASGFTFSDYGMHWVRQAPGKGLEWVAYISSGNRIIYYADTVKGRFTISRDNAKNSLYLQMNSLRAEDTALYYCARQDGYRYAMDYWAQGTLVTVSS
VL: DIVMTQSPDSLAVSLGERATMSCKSSQSLLNSGNQKNYLTWHQQKPGQPPKLLIYWTSTRESGVPDRFSGSGSGTDFTLTISSLQAEDVAVYYCQNDYTYPLTFGGGTKVEIKR
notes: also called 20E2-12
Regarding B4, the “B cell proliferation:Agonism (SI*)” value in [2] was < 2 SI (Stimulation Index). The molecule also yielded a dissociation constant Kd in assay [3] below 0.1 nM. Also, the concentration giving a half-maximal response (EC50) in assay [4] was around 1 nM; in assay [6] it was 1.2 nM. Also, the “EC50 (read off the curve)” value in assay [5] is around 1 nM. Besides, in [7], the “Species cross-react.:Hu/Cyno Binding (EC50 ratios)” value came to 3 ratio.

B5: Antibody B (IgG1KO) (antibody, V domains shown)
VH: EVQLVESGGGLVKPGGSLRLSCAASGFTFSDYGMHWVRQAPGKGLEWVAYISSGNRIIYYADTVKGRFTISRDNAKNSLYLQMNSLRAEDTAVYYCARQDGYRYAMDYWGQGTLVTVSS
VL: DIVMTQSPDSLAVSLGEKVTINCKSSQSLLNSGNQKNYLTWHQQKPGQPPKLLIYWTSTRESGVPDRFSGSGSGTDFTLTISSLQAEDVAVYYCQNDYTYPLTFGGGTKVEIKR
As to B5, the “B cell proliferation:Agonism (SI*)” value in assay [2] is < 2 SI (Stimulation Index). In addition, the Kd in [3] is below 0.1 nM. The concentration giving a half-maximal response (EC50) in [4] is around 1 nM; in [6], 1.5 nM; in assay [9] it was 1 nM; in assay [10], 1.8 nM; in assay [11], 4.6 nM; in [12], 2.1 nM. Also, the EC50 in [13] turned out to be 3.9 nM. In [5], the half-maximal effective concentration (EC50 (read off the curve)) was around 2 nM. For the same molecule, the “Species cross-react.:Hu/Cyno Binding (EC50 ratios)” value in [7] was 2 ratio.
